Molecular target: CD123 peptide epitope (24 aa, extracellular domain, disulfide between the two Cys) (UniProt P26951)
Test: flow cytometry, peptide-coated magnetic beads
Details: PBS (binding buffer), 37 °C, 30 min; BSA-bead signal subtracted for Kd; pH and salt not given

Sequence of UniProt P26951 (P26951 whole entry, the tested form may be a part): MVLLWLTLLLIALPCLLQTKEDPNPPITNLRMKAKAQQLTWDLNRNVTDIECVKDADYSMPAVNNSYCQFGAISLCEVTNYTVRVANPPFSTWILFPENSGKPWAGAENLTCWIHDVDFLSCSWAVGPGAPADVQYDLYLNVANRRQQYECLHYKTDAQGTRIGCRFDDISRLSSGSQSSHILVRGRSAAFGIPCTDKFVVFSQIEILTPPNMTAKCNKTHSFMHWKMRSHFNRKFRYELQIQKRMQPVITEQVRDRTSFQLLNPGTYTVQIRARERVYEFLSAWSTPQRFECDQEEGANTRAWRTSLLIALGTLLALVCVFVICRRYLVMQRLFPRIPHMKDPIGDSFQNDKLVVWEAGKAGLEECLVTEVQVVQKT

Sequence | Kd [nM]
TGCGTGTGTACTGTGTCTGGTCCCGTAGCTACTAGCGAACTCCCTGCCTCTTAGGGATTTGGGCGG [CY30] | 15.4
TGCGTGTGTAGTGTGTCTGGGCTACATCGATGAGCTGCCTAGGGTCCCTCTTAGGGATTTGGGCGG [ZW25] | 29.4

— article PMC8241133
